Target: VPAC2 receptor (human) (UniProt P41587)
Experiment: cell-based or functional assay

VPAC2 receptor (human), sequence (P41587 24-438): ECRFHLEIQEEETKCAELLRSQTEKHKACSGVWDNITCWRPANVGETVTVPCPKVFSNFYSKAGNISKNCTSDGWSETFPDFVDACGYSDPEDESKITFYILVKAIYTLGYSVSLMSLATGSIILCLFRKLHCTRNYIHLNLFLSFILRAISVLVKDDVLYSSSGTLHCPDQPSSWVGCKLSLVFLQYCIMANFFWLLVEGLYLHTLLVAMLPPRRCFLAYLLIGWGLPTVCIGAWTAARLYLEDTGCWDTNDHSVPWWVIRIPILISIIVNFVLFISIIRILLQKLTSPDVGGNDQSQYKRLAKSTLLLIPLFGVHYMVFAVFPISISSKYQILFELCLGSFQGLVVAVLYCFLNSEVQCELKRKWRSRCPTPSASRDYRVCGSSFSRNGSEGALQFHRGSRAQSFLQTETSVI

Substance: PACAP-27 (from UniProt P18509 132-158) (peptide)
- EC50 (nM), cAMP SPA, VPAC2 agonist activity: 0.09 nM
